Measured values as given in PMC10571791.

Experiments:
[1] = cell-surface flow cytometry, MCF-7
[2] = cell-surface flow cytometry, MDA-MB-231
[3] = glycan lost, control: WT-PD-L1 MCF-7 cells
[4] = glycan lost, control: WT-PD-L1 MDA cells

| Substance | expression_or_secretion [1, 3] | expression_or_secretion [2, 4] | expression_or_secretion ([1]; glycan changed form, control: vehicle-treated WT-PD-L1 MCF-7 cells) | expression_or_secretion ([2]; glycan changed form, control: vehicle-treated WT-PD-L1 MDA cells) |
| --- | --- | --- | --- | --- |
| PD-L1: N35A-PD-L1 | no change | no change | – | – |
| PD-L1: N192A-PD-L1 | no change | no change | – | – |
| PD-L1: N200A-PD-L1 | no change | no change | – | – |
| PD-L1: N219A-PD-L1 | no change | no change | – | – |
| PD-L1: kifunensine | – | – | no change | no change |
